# According to the DeepSol protein solubility set:
# Assay: soluble on expression in E. coli; label from the status in PepcDB or PDB records
row,Sequence,soluble on expression in E. coli
1,GMNTNLASFIVGLIIDENDRFYFVQKDGQTYALAKEEGQHTVGDTVKGFAYTDMKQKLRLTTLEVTATQDQFGWGRVTEVRKDLGVFVDTGLPDKEIVVSLDILPELKELWPKKGDQLYIRLEVDKKDRIWGLLAYQEDFQRLARPAYNNMQNQNWPAIVYRLKLSGTFVYLPENNMLGFIHPSERYAEPRLGQVLDARVIGFREVDRTLNLSLKPRSFEMLENDAQMILTYLESNGGFMTLNDKSSPDDIKATFGISKGQFKKALGGLMKAGKIKQDQFGTELI,soluble
2,GMQDERWNHPLYTTTAINDEELEGHAYIPGGLKVQTSSPMNDHPGTNPEQLLGLSLSTCLEATLEAVEKEHGLPHTGAVRVKVAFIGARAEYQFLVHAQVMVKGVDFDTAKAFTNEIENRCPVSKLLKNSGNYTIETVTDFKD,soluble
3,GMSADIVFDRGSPSDIDEIKTFTSNTWKVGYYTDLYSKLADTGTMDDYVDKVIERWVNDGSVYVLRVSGRPVATIHMEKLPDGSVMLGGLRVHPEYRGSRLGMSIMQETIQFLRGKTERLRSAVYSWNEPSLRLVHRLGFHQVEEYPIYTFQGGSTAVPALKPVNERYAGRWRCFFIDWKYMCSDDPDIIHEEYSNNLIVDGSTFVYFDIYEGGIDLFVNDSDDASSFIEKYRSMNGRITFYVRKALANGLPYVPASSLTVWEYRY,soluble
4,GMSEENKIGTYQFVAEPFHVDFNGRLTMGVLGNHLLNCAGFHASDRGFGIATLNEDNYTWVLSRLAIELDEMPYQYEKFSVQTWVENVYRLFTDRNFAVIDKDGKKIGYARSVWAMINLNTRKPADLLALHGGSIVDYICDEPCPIEKPSRIKVTSNQPVATLTAKYSDIDINGHVNSIRYIEHILDLFPIELYQTKRIRRFEMAYVAESYFGDELSFFCDEVSENEFHVEVKKNGSEVVCRSKVIFE,soluble
5,GMSKIFNEELAVIEAAAIAYLTAFNRADIPAVIATYTDDGVLMGPGRPAAVGKDELAEVYLSVFETVGFDMAYEIKEVVQTSADWAFVRSATEGTETNKATGVVTPAAYQELFLLRKSATGSWQTARYCTSKISP,soluble
6,GMSTPSPALFFNTVNAYQRSAAIKAAVELNVFTAISQGIESSQSLAQKCQTSERGMRMLCDYLVIIGFMTKQAEGYRLTSDSAMFLDRQSKFYVGDAIEFLLSPMITNGFNDLTAAVLKGGTAISSEGTLSPEHPVWVQFAKAMSPMMANPAQLIAQLVNENKIEPLKVLDISASHGLFGIAVAQHNPNAEIFGVDWASVLEVAKENARIQGVASRYHTIAGSAFEVDYGNDYDLVLLPNFLHHFDVATCEQLLRKIKTALAVEGKVIVFDFIPNSDRITPPDAAAFSLVMLATTPNGDAYTFAEYESMFSNAGFSHSQLHSLPTTQQQVIVAYK,soluble
7,GMTAVFRNTVLVRFKHCDAAGIVFYPRYFEMLNDFIEDWFAQALDWPFDAMHGAGQAGVPTADLHCRFVAPSRLGETLTRELRVVKLGQSSFTVQVRFMGPDSGLRLEVTQRLVCVDTDKIAPRPLPDPVRQAMATYVDETLAATGSPGL,soluble
8,GMTGKISALDLASGELSEPTKAYFAKCEEKLGLVPNVLKAYAFDDKKLRAFTDIYNDLMLGESGLSKLDREMIAVAVSSINHCYYCLTAHGAAVRQLSGDPALGEMLVMNFRAADLSPRQTAMLEFAVKLTEEPAKIVEADRAALRKAGFSDRDIWDIASTAAFFNMSNRVAAAIDMRPNDEYHAMAR,soluble
9,GMTGLSQSQASPMQIQPGNAAFNPWTDAALDTIRDVNQALTLYAEMRVVPAHHDAFLAAIDTVSAKLRVLPGFLSLALKQMSGDSTMVKNYPETYKGVLATAYLDGVAAGTQPYFYNLFVRFADGRAARAAGFEALFETHIHPLLHAMAPRGGDGPELLAYRAVLQSVVAGDRHAIYRGAEEIRSFLRRPVELPERETVTVENHVMVPEDKHAAWEPQVAILLQVAQDTFEPQDEPSGVGLPGARDNRYYRKALSTEILRNAHADGGLRAYIMHGVWESVWDHENSHLDPRFLAAAGPVGAAAVVGPVEPFYLTRRLVVAD,soluble
10,GMTKAREFLGTGWKFPVAAGADGAMVLSSAEEDIAESIRIILGTARGERVMRPDFGCGIHDRVFSVINTTTLGLIENEVKEALILWEPRIELLSVTASPREAAEGRLLIDIEYRVRSTNTRFNLVYPFYLKESA,soluble
11,GMTSPSIESGARERTRRAILDAAMLVLADHPTAALGDIAAAAGVGRSTVHRYYPERTDLLRALARHVHDLSNAAIERADPTSGPVDAALRRVVESQLDLGPIVLFVYYEPSILADPELAAYFDIGDEAIVEVLNRASTERPEYPPGWARRVFWALMQAGYEAAKDGMPRHQIVDAIMTSLTSGIITLPRT,soluble
12,GMYLKELSMMPGVSGDEGKVRDFIKSKIEGLVDNLYTDVLGNLIALKRGRDSSKKLLVSAHMDEVGFVVSKIEKDGKVSFLPVGGVDPRILPGKVVQVKNLKGVIGYRPIHLQRDEENTPPRFENLRIDFGFSSADEAKKYVSIGDYVSFVSDYIEKNGRAVGKAFDDRAGCSVLIDVLESGVSPAYDTYFVFTVQEETGLRGSAVVVEQLKPTCAIVVETTTAGDNPELEERKWATHLGDGPAITFYHRGYVIPKEIFQTIVDTAKNNDIPFQMKRRTAGGTDAGRYARTAYGVPAGVISTPARYIHSPNSIIDLNDYENTKKLIKVLVEEGKIVEVVS,soluble
13,GPGSMADEEDYDFEVNKKETDKIERPERLIEVLQHDTNQTLTEEMVEHAQAVLDFMPVEYTYKDVAAKLKCRLDGAYGGTWHVIVGKHFGANVTNDDDTLINMKINGVYFLAMRSGPPERPQESAENEAVTAE,soluble
14,GPGSMADILKSVKRIVVKVGSSILVDNQEIAAHRIEALCKFIADLQTKYEVILVTSGAVAAGYTQKEMDKAYVPNKQALASMGQPLLMHMYYTQLQKHGILCAQMLLAAYDLDSRKRTMNAHNTIEVLISHKVIPIINENDATALHELVFGDNDRLSALVAHHFKADLLVILSDIDGYYTENPRASTDAKIRSVVHELSPDDLVAEATPNNPFATGGIVTKLQAAQFLLERGGKMYLSSGFHLEKAREFLFGGSHEIGTLFYPRGSSS,soluble
15,GPGSMALGSGIGLVPMWSSCPSVNPPTFPKGGIEILRQSLEAQEEVERTFREREAGHIECLNFKKSLRHLLRKQNERREELQLVEQRASERTQALLDELLIVVRERLKAMSPEGYQSITFDNGDMYEGNWKSCRMHGTGVMRRVADNDIYEGEWFFGVRNGNGMCCSPNFGTLYSGKWLAGKWHGRGELAEPEGLYIGDFVDGQIRGYGEYLYREGYAYKGDWVNGVYEGSGTFFYTNGARYEGQWRNGYEHGRGTMTYYNGDVYTGDWCNGRKHGTGTYTSKLLQYEGGWSSGAVHGIGKCTYADGSMYKGSWCRGLYDGDGEFVSQDKKCSYKGEFRGGKRCGRGVYQCGEVEYSGDWLDDRRHGVGEIKTRDGRVFRGTWSHDEPHCEVVPGCNLEGTSLSYCGGRGAPIAPEEPDPVLNMRLGLPDEVIDCMADAPT,not soluble
16,GPGSMANDYLFTSESVSEGHPDKVADQISDAILDAILAQDKYSRVAAETLCNTGLVVLAGEITTTANIDYIQIARDTIKRIGYDNTDYGIDYRGCAVLVAYDKQSPDIAQGVDRAHDNNLDQGAGDQGLMFGYACDETPELMPLPIHLSHRLVERQANLRRDGRLPWLRPDAKSQVTVRYVDGKPHSIDTVVLSTQHAPEIDLPALREAVIEEVIKPTLPADLIKGDIKFLVNPTGRFVIGGPQGDCGLTGRKIIVDTYGGAAPHGGGAFSGKDPSKVDRSAAYAGRYVAKNIVAAGLASRALIQVSYAIGVAEPTSVMVNTFGTGRVSDETITKLVREHFDLRPKGIIQMLDLLRPIYEKTAAYGHFGREEPEFSWEAADKALALAEAAGVEPAVQVA,soluble
17,GPGSMASHAEGRLLRRSVPYVESWIAELTPKPVAPAAGAAPAPKGKAKGGTASTGTENATPMSRCCFAVGKVLEVSRHPESEKLYIEKIDLGAELNMLSNNEPRTILSGLQEFVKEEDFVNRLVLVIANLEPRKIGGIPSAGMVLCASTGEDPHDPASAGQGERKVVLLDIPEGTAVGERVVFEGHDMPYEPVLKKKLAKNFEEVMKDVRSSADGEVCWQGKPFQTSAGVIKASLCNARIS,soluble
18,GPGSMCVCASDCVTPMKRDTKGKLSYDMEPAEHRLSSSRSSSCNVVMTAADELAMQINDCRSLFPCIDAGSAVASIRPTSPSGRTVVARVPWTKSTGTTQTPAPEPTRCAVEVRFGYAEGFVCDEKVYEALLPLLLENGLQGAACVVDSDVSDS,not soluble
19,GPGSMDSINSVTFEWVRAGPAYTLDGPHVYHSGCLGSYQPAIGGLEMPAGHGKYFYEIQTSDTRCKVGVCTEDAFLSNVNLGDVELHAAQPSSSLNSRLSEANCCLFNCLTCAVEVNGVEVRSLWRLLVPSAGARFGFLVNTDEGAVQLYVNGEYQGLIADTATGFKGKKLRPCIALDAPPTCGAGAEANKSSASVVPPRKIIASTA,not soluble
20,GPGSMDVVATPLWSSPPCGSPMAGTVSSGNPLFHVGRSYYRSAAKAYNMTRYVVESLKLDETVLATSMAYWHTFVDRLELRKFDEIVLSASCVFLASKVEHYKVRLNRVIALVFEISGEGDEMEGWRRMLLEMELLVCHTLGFNFQIIHPMKRIVELVPEDHTQVLECAHRLFLLSFMTPLCVRVPADEVAEALVYLAADGAGQLEPYAGKFRCDAVERREGIINVMIDALAVMRKNTSLPKVDDMIVARRKRMREQESFRPSVAHSSGGTGSLDVTPSAFLVE,soluble
21,GPGSMEARGNVDGEKFRSINTLRTRFPALTVSDARALLERHNWNVAIAGAEAERGERQRTKADSANYFVGGGDKGSGQQVMAPSGESVSDRSGEIASGSGVHSMIDRIFRKAEVEGAKASGGDGGSGVEDNEPRAFYGRGQRLGYTANPSPYVASTLRAERSVCITVYRDGFEVDSNGFVPLNSDEGRQFVEAMDKGYVPPSLAAKYPNTDLTVNLRDCLQVDYVPPSYIAFQGDGHRLAAPSSTAASSAAPANAQASPATAGRSGTPAYDPSRTVEVRSDEATSFVVLLNTRGERRQVQVNPERHTVDDLYSLAHAYQPELQNFILVERGMPPRRLEASTRSQTIAQAKLSRAVVALQQM,soluble
22,GPGSMEGPPPVCFRQCSFTYGAEPSTLHISQQCFSDYVWILVTEDDTCVPGVVLRFDPHDAGPCVGCESLNNLPSLPCEYLLGVRDHALTNILSSAIAHAIQSVGEQRPLLLCVSAAKTAKRLQTTEERMSFVRMVREKVVALAKGETC,not soluble
23,GPGSMFRRLSSSARAVVAARFYTPPEGLKKLYASDFENSKYPLNIVPSDSVLFAKFLYKAAEEKGNFDNILSDFQKIAAAASKLPIFWERTAVVEKIPEFKQLSEPTFFTLVWMQNNGMLELIQEVAEVYETFVNAKQKKAVAKIFVAPGGEKNVEEARRVAEELHKGLKELADYTLVLKTVVDRTIVKGFAVELAGQYVNKAEGQQKQAGRADEVDYTNLPAPKPQKTVWDDNIETEVLRKYLDGLSQYDMEEAKYGV,not soluble
